Positions count from the first letter of the chain named. Numbers in names are those of the source.
How the values were obtained:
[1] = target: Thermoanaerobacterium thermosaccharolyticum sucrose phosphorylase (TtSPP) variant R134V, SEQ ID No 2 (Thermoanaerobacterium thermosaccharolyticum, UniProt D9TT09, R134V); assay: Kinetics of resveratrol glycosylation by variant R134V (co-substrate sucrose); format: biochemical; settings: 1M sucrose as co-substrate, pH 6.5, 55° C., 20% AMMOENG 101
Method: (§1) Kinetics of enzyme variants on resveratrol were determined in an aqueous system containing 20% ionic liquid AMMOENG 101 (kindly provided by Evonik Industries AG) to dissolve the acceptor in a range of 0 to 200 mM. At this concentration of ionic liquid, the kinetic parameters of the enzyme for its natural substrates are not affected. Reactions were started combining 8.5 μM heat purified enzymes, 1 M sucrose and the respective acceptor-concentration at 55° C. To determine the initial velocity, samples were taken every 15 minutes for one hour, and inactivated by ten-fold dilution in pure ethanol. Product formation was again quantified by TLC and ImageJ analysis, using purified resveratrol 3-alpha-glucoside as TLC-standard and a respective standard curve for calculations. Kinetic parameters were calculated by non-linear regression of the Michaelis-Menten equation with Sigma Plot v13.0. All experiments were performed in triplicate to obtain kinetic parameters as reproducible mean values±standard errors.

[2] = target: T1, Thermoanaerobacterium thermosaccharolyticum sucrose phosphorylase (TtSPP) variant R134A, SEQ ID No 1 (Thermoanaerobacterium thermosaccharolyticum, UniProt D9TT09, R134A); assay: Kinetics of resveratrol glycosylation by variant R134A (co-substrate sucrose); format: biochemical; settings: 1M sucrose as co-substrate, pH 6.5, 55° C., 20% AMMOENG 101
T1 sequence (D9TT09 1-488 R134A): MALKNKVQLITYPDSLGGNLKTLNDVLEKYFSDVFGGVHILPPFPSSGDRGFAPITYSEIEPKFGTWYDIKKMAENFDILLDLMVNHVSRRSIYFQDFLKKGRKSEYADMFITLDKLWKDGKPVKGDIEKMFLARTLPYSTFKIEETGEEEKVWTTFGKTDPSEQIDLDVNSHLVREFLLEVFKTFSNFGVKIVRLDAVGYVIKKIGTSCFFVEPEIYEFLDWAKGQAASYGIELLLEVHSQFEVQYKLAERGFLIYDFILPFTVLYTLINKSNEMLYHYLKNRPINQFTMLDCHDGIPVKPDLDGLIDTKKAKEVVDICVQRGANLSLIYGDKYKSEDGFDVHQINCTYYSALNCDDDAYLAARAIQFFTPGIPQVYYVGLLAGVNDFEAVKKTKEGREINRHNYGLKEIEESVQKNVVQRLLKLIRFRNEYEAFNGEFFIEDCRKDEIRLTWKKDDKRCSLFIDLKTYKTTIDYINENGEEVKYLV
Method: as §1

[3] = test system: Thermoanaerobacterium thermosaccharolyticum sucrose phosphorylase (TtSPP), EC 2.4.1.329, wild type; settings: sucrose as glycosyl donor; Verhaeghe et al., 2014; cited from earlier work
[4] = Screening assay, transglycosylation activity on quercetin (semi-quantitative TLC); format: biochemical; settings: 1 gL^−1 enzyme, 10 gL^−1 acceptor, 1 M sucrose, pH 6.5, 37° C., 16 h; FIG. 2 A
Method: (§2) Heat-purified proteins (for tests on different acceptors) or crude protein extracts (for library screening) were incubated to a final concentration of 1 gL^−1 with 10 gL^−1 acceptor and 1 M sucrose in 50 mM MOPS-buffer at pH 6.5. Assays were performed at 37° C. in microtiterplates shaking at 200 rpm. The product amounts were evaluated after 16 h by semi-quantitative TLC-analysis: 1 μl of each sample solution was spotted on a Silica-plate (TLC-Silica gel 60 F254, Merck Millipore) and run in a solvent system from ethylacetate:methanol:water (30:5:4, v/v/v). Plates were oxidized with 10% sulphuric acid and spot intensities were determined using ImagaJ.

[5] = Screening assay, transglycosylation activity on resveratrol (semi-quantitative TLC); format: biochemical; settings: 1 gL^−1 enzyme, 10 gL^−1 acceptor, 1 M sucrose, pH 6.5, 37° C., 16 h; FIG. 1
Method: as §2

[6] = substrate: Oc1ccc(/C=C/c2cc(O)cc(O)c2)cc1; assay: Kinetics of resveratrol glycosylation by variant R134T (co-substrate sucrose); format: biochemical, Thermoanaerobacterium thermosaccharolyticum; settings: other: variant R134T, 1M sucrose as co-substrate, pH 6.5, 55° C., 20% AMMOENG 101
Method: as §1

[7] = Qualitative survey of promiscuity on diverse polyphenolic acceptors; format: biochemical; settings: FIG. 2 B
Method: as §2

[8] = Production of resveratrol 3-alpha-glucoside in aqueous system, followed by HPLC; format: biochemical; settings: 1 M sucrose, saturated suspension of 10 g·L^−1 resveratrol, 24 h, 55° C., pH 6.5
Method: Up-scaling of the transglycosylation reactions on resveratrol was performed up to 400 ml volumes. Reactors were stirred continuously at 55° C. for 24 h, and contained 1 M sucrose, 1 mgL^−1 enzyme and 10 gL^−1 of resveratrol (suspension) in 50 mM MOPS-buffer pH 6.5. Thanks to the quantitative conversion of resveratrol, its glucoside could be simply isolated by repeated ethylacetate extractions to a purity of >90%. The solvent was evaporated and the dried product analyzed by HPLC to determine purity and yield. To verify the identity of the compound by NMR and to produce the standards (TLC, H PLC), further purification was performed by column chromatography on silica gel (EtOAC:MeOH:H2O; 30:5:4; v/v/v) as described earlier (De Winter et al, 2013).
Reactions were followed for 24 h. […] Supernatants were filtered through a 0.2 μm polystyrol filter, diluted in DMSO and analyzed by HPLC using a polar Waters XBridge Amide column (250×4.6 mm, 3.5 μm) and an Alltech 2000ES ELSD-detector (40° C., gas flow 1.5 Lmin^−1), supplied with a gradient mixture of eluent A (acetonitrile, 0.2% triehtylamine) and eluent B (0.2% triethylamine): 90% solvent A (6 min), 10-25% solvent B (stepwise, 3% min^−1), 25% solvent B (20 min) and 90% solvent A (10 min). Concentrations of ingredients and respective yields were calculated according to standards of fructose, glucose and resveratrol 3-alpha-glucoside.

Chain of Thermoanaerobacterium thermosaccharolyticum sucrose phosphorylase (TtSPP) variant R134V, SEQ ID No 2 (D9TT09 whole entry R134V): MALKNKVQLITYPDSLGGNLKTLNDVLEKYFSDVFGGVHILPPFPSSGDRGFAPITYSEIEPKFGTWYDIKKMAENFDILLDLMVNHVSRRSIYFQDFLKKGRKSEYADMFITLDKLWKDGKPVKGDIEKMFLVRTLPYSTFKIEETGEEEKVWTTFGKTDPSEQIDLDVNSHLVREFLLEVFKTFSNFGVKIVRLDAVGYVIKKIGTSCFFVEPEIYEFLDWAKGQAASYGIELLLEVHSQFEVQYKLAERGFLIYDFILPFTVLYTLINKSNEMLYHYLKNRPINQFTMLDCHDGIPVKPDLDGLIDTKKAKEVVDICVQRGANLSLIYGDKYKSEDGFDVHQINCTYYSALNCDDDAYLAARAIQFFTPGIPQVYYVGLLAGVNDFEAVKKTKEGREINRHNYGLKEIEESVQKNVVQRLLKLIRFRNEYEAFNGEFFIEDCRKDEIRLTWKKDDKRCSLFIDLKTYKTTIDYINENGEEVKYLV

Which results are given for `Oc1ccc(/C=C/c2cc(O)cc(O)c2)cc1` [resveratrol, trans-3,4′,5-trihydroxystilbene]?
kcat [1]: 0.45 ± 0.02 s⁻¹; kcat [2]: 2.36 ± 0.25 s⁻¹

Which Km [3] does the source give for `OC[C@H]1O[C@@](CO)(O[C@H]2O[C@H](CO)[C@@H](O)[C@H](O)[C@H]2O)[C@@H](O)[C@@H]1O` [sucrose] here?
Its Km is 77 mM.

B1: BaSP: wild-type thermostable sucrose phosphorylase of Bifidobacterium adolescentis (protein, UniProt A0ZZH6 1-504, looked up)
Sucrose phosphorylase: MKNKVQLITYADRLGDGTIKSMTDILRTRFDGVYDGVHILPFFTPFDGADAGFDPIDHTKVDERLGSWDDVAELSKTHNIMVDAIVNHMSWESKQFQDVLAKGEESEYYPMFLTMSSVFPNGATEEDLAGIYRPRPGLPFTHYKFAGKTRLVWVSFTPQQVDIDTDSDKGWEYLMSIFDQMAASHVSYIRLDAVGYGAKEAGTSCFMTPKTFKLISRLREEGVKRGLEILIEVHSYYKKQVEIASKVDRVYDFALPPLLLHALSTGHVEPVAHWTDIRPNNAVTVLDTHDGIGVIDIGSDQLDRSLKGLVPDEDVDNLVNTIHANTHGESQAATGAAASNLDLYQVNSTYYSALGCNDQHYIAARAVQFFLPGVPQVYYVGALAGKNDMELLRKTNNGRDINRHYYSTAEIDENLKRPVVKALNALAKFRNELDAFDGTFSYTTDDDTSISFTWRGETSQATLTFEPKRGLGVDNTTPVAMLEWEDSAGDHRSDDLIANPPVVA
For B1, which “transglycosylation activity on quercetin” value [4] is on record?
Its value is “neither had activity on quercetin”.

What about the “transglycosylation activity on resveratrol” value [5] of the same molecule?
The value was “Neither of these enzymes display significant activity on resveratrol”.

B2: Thermoanaerobacterium thermosaccharolyticum sucrose phosphorylase (TtSPP) variant R134T, SEQ ID No 3 (Thermoanaerobacterium thermosaccharolyticum DSM 571; … (protein)
chain: T1 sequence (D9TT09 1-488 R134A) with A134T
For B2, which Km [6] is on record?
The Km was 56 ± 8 mM.

And the kcat [6]?
The kcat was 0.08 ± 0.004 s⁻¹.

And the kcat/Km [6]?
The kcat/Km was 1.4 ± 0.2 M⁻¹ s⁻¹.

B3: R134A: variant R134A of TtSPP sucrose phosphorylase from Thermoanaerobacterium thermosaccharolyticum (protein)
chain: T1 sequence (D9TT09 1-488 R134A)
modifications: mutant of sucrose phosphorylase of bacterium Thermoanaerobacterium thermosaccharolyticum
With B3 as the molecule, how does the “activity on flavonoids and phenoxyphenols (acceptor promiscuity)” value [7] read?
The value was “displayed activity on structures from all five major classes of flavonoids”.

What about the “transglycosylation activity on quercetin” value [4] of the same molecule?
The value was “significant amounts of transglycosylation product could be detected”.

What about the “transglycosylation activity on resveratrol” value [5] of the same molecule?
The value was “retained more than half of its activity on resveratrol”.

And the “resveratrol 3-alpha-glucoside produced” value [8]?
Its value is 17.1 ± 0.6 g/L.

What about the “conversion of resveratrol (acceptor)” value ([8]; FIG. 3) of the same molecule?
Its value is “complete conversion of the acceptor”.

From patent US10280442B2, “Mutant sucrose phosphorylases with improved glycosylation activity towards polyphenols” (Universiteit Gent, priority 2015, dated 2019)
